The record followed here is US20210196806A1.

The target of the assay is CD8+ T cells among expanded tumor infiltrating lymphocytes (TIL) of a lung adenocarcinoma patient (H). As to the kind of experiment: flow cytometry, tetramer staining of expanded TILs of one patient. (In general: A flow cytometer gives signals particle by particle.)

The substance “KRAS-G12V/HLA-A*11:01 tetramer (from UniProt P61769 21-119) (peptide-MHC)” displayed a percent of CD8+ T cells binding the tetramer above 66%.
